Assay results as given in paper PMC10570038.
Where “and” joins values, the source holds several entries; their conditions need not be identical. Equal values may be shown once.

Legend:
RBPMS-A FL (rat) = RBPMS-A FL (rat) (UniProt A0A8I6G705); test: EMSA; conditions: no binding in 0-6 uM; EMSA: 10 nM RNA, 25 mM HEPES pH 7.9, 100 mM KCl, 2 mM MgCl2, 0.625 mM DTT, 0.1 mg/ml BSA, 5% glycerol, 30 C 1 h, then 5 mg/ml heparin 10 min; 5% native PAGE in …
[1] = biological target: recombinant untagged rat RBPMS-A ΔC20 (rat); test: cross-linking; glycerol gradients supplemented with a glutaraldehyde cross-linker (GraFix)
[2] = biological target: recombinant untagged rat RBPMS-A ΔC20 (rat); test: SEC; size exclusion chromatography of purified untagged recombinant protein; compared with size markers (443 kDa marker, void volume)
[3] = biological target: recombinant untagged rat RBPMS-A ΔC20 (rat); test: AUC; sedimentation velocity, 40 000 rpm, 20°C, 20 mM HEPES, 1 mM TCEP, pH 7.9, 60 mM KCl; FL 0.7, 0.48, 0.24, 0.11 mg/ml; ΔC20 0.5 or 0.1 mg/ml; continuous c(s) model
[4] = biological target: recombinant untagged rat RBPMS-A ΔC20 (rat); test: AUC; sedimentation velocity, 40 000 rpm, 20°C, 20 mM HEPES, 1 mM TCEP, pH 7.9, 500 mM KCl; FL and ΔC20 at equal molar concentration (0.46 and 0.57 mg/ml); continuous c(s) model

| stoichiometry N [1] | percent eluting as dimer [2] [%] | stoichiometry N [2] | stoichiometry N [3] | stoichiometry N [4] | Substance | Kd (RBPMS-A FL (rat)) [µM] |
| --- | --- | --- | --- | --- | --- | --- |
| – | – | – | – | – | GUCUACGCACCCUCAACCCGCACCUUGCGGGAUG [(CAC)2] | > 6 |
| 3 and 4 | 96 | 2 | 2 and 3 | 2 | recombinant untagged rat RBPMS-A ΔC20 (domain or fragment) | – |
